Laboratory results taken from patent US12281181.
Numbered stars: 1 amine (or outer) side, 2 acyl side, 3 side chain; on linkers, the order of the positions; unused ones are H or OH. Bridge positions count the residues as written; N and C are the ends. Square brackets hold non-standard residues; d marks the D form. Ends that are not written are not given here. Trimesoyl = O=C(c1cc(C(=O)[*:2])cc(C(=O)[*:3])c1)[*:1]; 2Nal = N[C@@H](Cc1ccc2ccccc2c1)C(=O)O; Dap = NC[C@H](N)C(=O)O; βAla = NCCC(=O)O

B1: peptide 6 (peptide)
peptide: GWIY[Dap]F[2Nal]R[dR]R[Dap][βAla][βAla]K
modifications: linker (positions not given here) via trimesic acid; not fully specified (bridges); printed as Tm(GWIY)Δ(FΦRrRΔ)-BBK
B2: peptide 7 (peptide)
peptide: GWIYA[Dap]F[2Nal]R[dR]R[Dap][βAla][βAla]K
modifications: linker N-6-12 via Trimesoyl; not fully specified (N-terminus); printed as Tm(GWIYA)Δ(FΦRrRΔ)-BBK
B3: peptide 9 (peptide)
peptide: AGWIY[Dap]F[2Nal]R[dR]R[Dap][βAla][βAla]K
modifications: linker (positions not given here) via trimesic acid; not fully specified (bridges); printed as Tm(AGWIY)Δ(FΦRrRΔ)-BBK
B4: peptide 10 (peptide)
peptide: [dA]GWIY[Dap]F[2Nal]R[dR]R[Dap][βAla][βAla]K
modifications: linker (positions not given here) via trimesic acid; not fully specified (bridges); printed as Tm(aGWIY)Δ(FΦRrRΔ)-BBK
B5: peptide 11 (peptide)
peptide: AWIYA[Dap]F[2Nal]R[dR]R[Dap][βAla][βAla]K
modifications: linker (positions not given here) via trimesic acid; not fully specified (bridges); printed as Tm(AWIYA)Δ(FΦRrRΔ)-BBK
B6: peptide 12 (peptide)
peptide: GAIYA[Dap]F[2Nal]R[dR]R[Dap][βAla][βAla]K
modifications: linker (positions not given here) via trimesic acid; not fully specified (bridges); printed as Tm(GAIYA)Δ(FΦRrRΔ)-BBK
B7: peptide 13 (peptide)
peptide: GWAYA[Dap]F[2Nal]R[dR]R[Dap][βAla][βAla]K
modifications: linker (positions not given here) via trimesic acid; not fully specified (bridges); printed as Tm(GWAYA)Δ(FΦRrRΔ)-BBK
B8: peptide 14 (peptide)
peptide: GWIAA[Dap]F[2Nal]R[dR]R[Dap][βAla][βAla]K
modifications: linker (positions not given here) via trimesic acid; not fully specified (bridges); printed as Tm(GWIAA)Δ(FΦRrRΔ)-BBK
B9: peptide 15 (peptide)
peptide: GWIYA[Dap]A[2Nal]R[dR]R[Dap][βAla][βAla]K
modifications: linker (positions not given here) via trimesic acid; not fully specified (bridges); printed as Tm(GWIYA)Δ(AΦRrRΔ)-BBK
B10: peptide 17 (peptide)
peptide: GWIYA[Dap]F[2Nal]A[dR]R[Dap][βAla][βAla]K
modifications: linker (positions not given here) via trimesic acid; not fully specified (bridges); printed as Tm(GWIYA)Δ(FΦArRΔ)-BBK
B11: peptide 18 (peptide)
peptide: GWIYA[Dap]F[2Nal]R[dA]R[Dap][βAla][βAla]K
modifications: linker (positions not given here) via trimesic acid; not fully specified (bridges); printed as Tm(GWIYA)Δ(FΦRaRΔ)-BBK
B12: peptide 19 (peptide)
peptide: GWIYA[Dap]F[2Nal]R[dR]A[Dap][βAla][βAla]K
modifications: linker (positions not given here) via trimesic acid; not fully specified (bridges); printed as Tm(GWIYA)Δ(FΦRrAΔ)-BBK
B13: peptide 20 (peptide)
peptide: GAIAA[Dap]F[2Nal]R[dR]R[Dap][βAla][βAla]K
modifications: linker (positions not given here) via trimesic acid; not fully specified (bridges); printed as Tm(GAIAA)Δ(FΦRrRΔ)-BBK
B14: peptide 2 (peptide)
peptide: GWIY[Dap]F[2Nal]RRR[Dap][βAla][βAla]K
modifications: linker (positions not given here) via trimesic acid; not fully specified (bridges); printed as Tm(GWIY)Δ(FΦRRRΔ)-BBK
B15: peptide 3 (peptide)
peptide: GWIY[Dap]F[2Nal]RRRR[Dap][βAla][βAla]K
modifications: linker (positions not given here) via trimesic acid; not fully specified (bridges); printed as Tm(GWIY)Δ(FΦRRRRΔ)-BBK
B16: peptide 16 (peptide)
peptide: GWIYA[Dap]FAR[dR]R[Dap][βAla][βAla]K
modifications: linker N-6-12 via Trimesoyl; not fully specified (N-terminus); printed as Tm(GWIYA)Δ(FARrRΔ)-BBK
notes: Alanine-scan variant of peptide 7
B17: peptide 4 (peptide)
peptide: GWIY[Dap]F[2Nal]RRR[Dap]R[βAla]K
modifications: linker N-5-11 via Trimesoyl; not fully specified (N-terminus); printed as Tm(GWIY)Δ(FΦRRRA)-RBK
notes: Bicyclic peptide; 4th arginine outside the B ring
B18: peptide 5 (peptide)
peptide: GWIY[Dap]F[2Nal]RRR[Dap][dR][βAla]K
modifications: linker N-5-11 via Trimesoyl; not fully specified (N-terminus); printed as Tm(GWIY)Δ(FΦRRRA)-rBK
notes: Bicyclic peptide; D-arginine outside the B ring
B19: peptide 21 (peptide)
peptide: GAAAA[Dap]F[2Nal]R[dR]R[Dap][βAla][βAla]K
modifications: linker (positions not given here) via trimesic acid; not fully specified (bridges); printed as Tm(GAAAA)Δ(FΦRrRΔ)-BBK
B20: fluorescently labeled peptide 7 (peptide)
peptide: GWIYA[Dap]F[2Nal]R[dR]R[Dap][βAla][βAla]K
modifications: linker (positions not given here) via trimesic acid; not fully specified (bridges); printed as Tm(GWIYA)Δ(FΦRrRΔ)-BBK; also: FITC label, site not given here

What follows are binders tested against T1, Recombinant GST-NEMO (NEMO(1-196)) (UniProt Q9Y6K9 1-196, biotinylated in the library screen) (assay: HTRF competition, GST-NEMO + biotin-IKKβKK/RR(701-745), peptide 0-100 µM).
T1 construct: range 1-196; Expressed in E. coli BL21(DE3); also called NF-κB essential modulator; IKKγ; not shown: glutathione S-transferase (GST) tag encoded by the pGEX4T3 vector
T1 sequence (Q9Y6K9 1-196): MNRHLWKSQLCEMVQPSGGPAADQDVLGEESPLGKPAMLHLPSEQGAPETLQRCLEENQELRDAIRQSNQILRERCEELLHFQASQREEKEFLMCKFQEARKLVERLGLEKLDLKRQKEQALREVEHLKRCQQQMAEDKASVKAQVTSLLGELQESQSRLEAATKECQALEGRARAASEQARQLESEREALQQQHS

| Binder | IC50 [nM] |
| --- | --- |
| B1 | 5900 |
| B2 | 1000 |
| GWIY[dA][Dap]F[2Nal]R[dR]R[Dap][βAla][βAla]K (linker N-6-12 via Trimesoyl) [peptide 8] | 2900 |
| B3 | 2200 |
| B4 | 2300 |
| B5 | 1200 |
| B6 | 3000 |
| B7 | 1700 |
| B8 | 2800 |
| B9 | 1900 |
| B10 | 1100 |
| B11 | 2100 |
| B12 | 1200 |
| B13 | 16000 |
| B14 | 3400 |
| B15 | 1500 |
| B16 | 2800 |
| B17 | 1800 |
| B18 | 1300 |

These binders were tested against T1, Recombinant GST-NEMO (NEMO(1-196)) (assay: HTRF competition IC50 against peptide 7).

| Binder | fold lower NEMO-binding affinity against peptide 7 [fold] |
| --- | --- |
| B13 | 16 |
| B19 | > 100 |

What follows are binders tested against T1, Recombinant GST-NEMO (NEMO(1-196)) (assay: HTRF competition IC50, alanine scan against peptide 7).

| Binder | fold decrease in potency against peptide 7 [fold] |
| --- | --- |
| B6 | 2 to 3 |
| B7 | 2 to 3 |

Each binder was assayed against T1, Recombinant GST-NEMO (NEMO(1-196)) (assay: HTRF competition IC50, peptide 7 against peptide 6).

| Binder | fold increase in binding affinity against peptide 6 [fold] |
| --- | --- |
| B2 | 5.9 |

The binders below were run against T1, Recombinant GST-NEMO (NEMO(1-196)) (assay: HTRF competition, GST-NEMO + biotin-IKKβKK/RR(701-745)).

| Binder | IC50 [nM] |
| --- | --- |
| B14 | 3400 to 28000 |

Each binder was assayed against T1, Recombinant GST-NEMO (NEMO(1-196)) (assay: fluorescence anisotropy (FA), direct binding).

| Binder | Kd [nM] |
| --- | --- |
| B20 | 220 |

What follows are binders tested against NEMO (endogenous, inside cultured cells) (UniProt Q9Y6K9 1-419) (assay: cell-based or functional assay).
NEMO (endogenous, inside cultured cells), sequence (Q9Y6K9 whole entry): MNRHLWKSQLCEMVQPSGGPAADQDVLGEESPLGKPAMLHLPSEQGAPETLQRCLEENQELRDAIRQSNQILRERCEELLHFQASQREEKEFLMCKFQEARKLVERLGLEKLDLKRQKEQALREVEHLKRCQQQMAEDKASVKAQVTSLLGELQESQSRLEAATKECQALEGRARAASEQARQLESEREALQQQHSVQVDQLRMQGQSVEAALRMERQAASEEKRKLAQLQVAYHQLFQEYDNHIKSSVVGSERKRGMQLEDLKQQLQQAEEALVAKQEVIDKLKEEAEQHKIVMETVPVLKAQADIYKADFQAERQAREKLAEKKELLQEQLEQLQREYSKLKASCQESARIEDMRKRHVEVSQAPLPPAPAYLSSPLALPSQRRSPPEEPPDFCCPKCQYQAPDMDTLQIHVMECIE

| Binder | inhibition of TNFα-induced NF-κB activation, luciferase in HEK293(Luc) cells, IC50 [nM] |
| --- | --- |
| B2 | 10000 |
